In article PMC6520340, “Development of a ribonuclease containing a G4-specific binding motif for programmable RNA cleavage”:

Target: RHAU140-RNase HI fusion (Homo sapiens (RHAU) / Bacillus …, UniProt Q9H2U1 53-192+=SGGGSGGGSGGGSGGG+Q9KEI9:59-196, internal_change)
Experiment: EMSA; 10 uM DNA, 50 uM protein; 100 mM K+; Native 10% PAGE in 1X TBE, 20 mM potassium phosphate, 100 mM KCl, pH 7.0; UV shadowing; temperature not stated
Settings: protein: recombinant

RHAU140-RNase HI fusion, sequence (Q9H2U1 other isoform, or with tags, fused parts or gaps): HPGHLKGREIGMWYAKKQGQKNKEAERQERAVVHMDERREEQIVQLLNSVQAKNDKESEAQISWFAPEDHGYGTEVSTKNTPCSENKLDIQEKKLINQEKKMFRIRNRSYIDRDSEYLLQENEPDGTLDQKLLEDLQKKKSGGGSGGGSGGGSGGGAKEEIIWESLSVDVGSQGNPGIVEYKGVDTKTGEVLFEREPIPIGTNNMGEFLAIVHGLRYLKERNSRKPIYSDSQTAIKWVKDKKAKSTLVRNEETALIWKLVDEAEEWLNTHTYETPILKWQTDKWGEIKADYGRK

TTGACTAAGTGCCTTAGTTCAACGACGACGGCATCATC (ssDNA) [B0]
binding result (single strand): no binding

TTGGGTGGGTGGGTGGGTTCAACGACGACGGCATCATC (structured_DNA) [B1]
binding result (parallel G4 with 3' single-stranded tail): binds
